Results as given in patent US20220133794A1 (Stanford University, published 2022).

T1: human CD93 (human, UniProt Q9NPY3 22-652)
T1 construct: whole, on cells; Endogenous CD93 on AML cell lines
T1 sequence (looked up): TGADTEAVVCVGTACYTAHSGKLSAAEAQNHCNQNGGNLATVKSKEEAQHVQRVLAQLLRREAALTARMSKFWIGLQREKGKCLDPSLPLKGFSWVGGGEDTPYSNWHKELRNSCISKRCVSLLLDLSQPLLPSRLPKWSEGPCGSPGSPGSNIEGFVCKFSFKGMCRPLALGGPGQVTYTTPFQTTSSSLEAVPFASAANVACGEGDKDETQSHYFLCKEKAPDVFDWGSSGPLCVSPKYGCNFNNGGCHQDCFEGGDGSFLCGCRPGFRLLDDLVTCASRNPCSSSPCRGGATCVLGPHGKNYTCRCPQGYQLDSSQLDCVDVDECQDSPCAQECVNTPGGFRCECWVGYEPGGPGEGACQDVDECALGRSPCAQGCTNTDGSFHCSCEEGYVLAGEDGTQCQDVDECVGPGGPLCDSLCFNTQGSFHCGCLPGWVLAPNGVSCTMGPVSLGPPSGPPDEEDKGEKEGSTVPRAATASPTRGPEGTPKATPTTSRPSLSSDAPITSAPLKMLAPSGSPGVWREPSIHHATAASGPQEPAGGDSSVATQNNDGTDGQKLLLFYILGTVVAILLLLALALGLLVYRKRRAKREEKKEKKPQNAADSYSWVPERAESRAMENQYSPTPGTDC

B1: mouse monoclonal anti-human CD93 antibody F11 (hybridoma clone F11) (antibody, V domains shown)
VH: EVQLQQSGPELVKPGASVKIPCKASGYTFTDYHMDWVKQSHGKSLEWIGDIDPYNGDTVFNQKFKGKATLTVDKSSSTAYMELRSLTSEDTAVYYCTRGGDYWGQGTTLTVSS
VL: DVVMTQTPLSLPVSLGDQASISCRSSQTLVHSNGNTYLHWYLQKPGQSPKLLIYKVSNRFSGVPDRFSGSGSGTDFTLKISRVEAEDLGVYFCSQSTHVPFTFGSGTKLEIK
notes: Mouse hybridoma antibody tested as supernatant; also called mouse F11; parental antibody
B2: humanized F11-G1 (Hu F11-G1) (antibody, V domains shown)
VH: QVQLVQSGAEVKKPGASVKVSCKASGYTFTDYHMDWVKQAPGQGLEWIGDIDPYNGDTVFNQKFKGKATMTRDTSISTAYMELSRLRSDDTAVYYCTRGGDYWGQGTLVTVSS
VL: DIVMTQTPLSLSVTPGQPASISCRSSQTLVHSNGNTYLHWYLQKPGQPPQLLIYKVSNRFSGVPDRFSGSGSGTDFTLKISRVEAEDVGVYFCSQSTHVPFTFGQGTKLEIK
notes: The light chain was detected with anti-human kappa; also called humanized mCD93 antibody (F11); humanized anti-CD93 antibody

Key:
human CD93 [1] = biological target: T1, human CD93; experiment: hybridoma supernatant screen by ELISA and flow cytometry
human CD93 [2] = biological target: T1, human CD93; experiment: flow cytometry on AML cell lines, biotinylated antibody and streptavidin APC
Description: FIG. 8. CD93-specific CAR T cells produce cytokines when incubated with CD93 positive AML cell lines. A. AML cell lines were first treated with Fc block, then were stained with biotinylated HuF11 antibody followed by streptavidin APC, or with streptavidin APC only as a control. CD93 was highly expressed on many AML cell lines including THP-1, Kasumi, MOLM-13, NOMO-1, and OCI-AML3, and was not expressed on HEL-2. B. 1×10⁵ AML cells were incubated with 1×10⁵ mock, F11 28ζ LH, F11 28ζ H-L, F11 BBζ L-H, or F11 BBζ H-L CAR T cells for 24 h. At 24 h, supernatant was harvested and ELISA was performed for IFNγ and IL-2. Results are representative of at least three independent experiments.

binding result (human CD93 [1]) | binding result (human CD93 [2]) | Binder
binds | – | B1
– | binds | B2
